This data set can be described thus: label from the status in PepcDB records.
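Note: failed if final PepcDB status was selected cloned or expressed and not failed if soluble or beyond.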

In the case of “MKQTPPLISFITICYNGLDDTCMLIESLRDTISSVSYEIIVVDNASRQDEASLIQERYPFVRTLRSEKNLGFSGGNNLGIQIAQGKYLFLINNDTYLTEDGLPALIERLESDPRIGAVSPKIRFAFPPQSIQFAGYTKLSRYTMRNKALGMGCPDDGTFDTPRPSAYLHGAALMLKREVIWKAGLMPEIYFLYYEELDWCTSMTRAGYQLWYEPRCTIFHKESQSTGRQSPLRTFYMMRNRMLYAWRNLPGMERCLAIAYQMLIVAPKDSLCFVLKGEPKLAKAVWHGVKGFWKLCLEHHHHHH”, the protein production result is recorded as “not failed”. Consider “MKRADFCIIGLGRFGMQVAHSLKENNFTLVLIDNDQHKTNTAAQEFDHVVCCDGSNLTALAELQLEEFSAVIVGVTNIEASIMICANLRELGQKNIIARAKNEVHNRVLRTMGIREALIPEKIVGKNLVIRLIHGMETEIINLGNDILFVRAPVNNKKLFNRTLGEINIREHTNANLISIMRNGKDVVFPLGPNTQIQPGDVITAVCQLSGVNQYLRYINPNDKNKYKASE”, for which the protein production result is recorded as “failed”.

For the sequence “MKRAFAAVAATVCLFLLVQLGSLALVEPFMSAGFQAVEDPSDPTNSLLYIIAILVATGVMLAAMKFGVDRLLQGLVLFAAVFISFYVFTVVVPPVVAVAGLNLVAVALALALGVGLLVYPEWYVIDAAGIVMGAGAAGLFGISFGLLPALVLLVVLAVYDAISVYGTEHMLALASGAMDLRLPVIFVVPLTLSYSFLDADNPESLEDDTPESDAEAEPDEGDDVSTATGDAEPVDTMAEDADTDADSDADADDPAAAEAAPDEHADPFARDAFFIGLGDAVIPTILVASAAFFRPGGVELLSVPGIALTVPALGAMVGTIAGLLALMWFVMKGRAHAGLPLLNGGAIAGYLLGAAAVGIPVVEALGVAPYL”, the protein production result is listed as “failed”.

As for “MKRANIVKLIVDKKTHEKLKELAIATAKCWNEVNWLRMQQFKKGERVDFSKTEKDVYEKYKQILKVNTQQVARKNAEDWRSFFSLIEEKKEGKLPRWFKPRPPGYWKDKIGKYKLIIIIRKDRYEVNEEKRIIYLKDFKLSLSFKGKLKWHGEQGRLEIIYNEARRIWYAHIPVEVQNDVKAEGKLKASIDLGIVNLATVYVEDGSWYIFKGGSVLSQYEYYSKRISIVQKTLARHKQRRSRKMKLLYEKRKRFLKHALNSMVRKIMEELKKKGVSKLIIGYPKEISKDHGNKLTVNFWNYGYIIRRFEEVGEELGIEVVEVDEAWTSKSCSLCGEAHHRGRIKRGLYRCPRMGKVINADLNGAINILHIPESLGAGSGGQLPVRDRGNGLKAQPAVYRWSNGVGWVSSPTSYEVMKMKAVNRKPMNRPKGTLAL”, the protein production entry is reported as “failed”. To “MKRDRNLTWHRTDALRPNLEGRQVAVIGGTGGIGRALSRHLASLDARVVVVGQTFRDADVPGIRFIQADLSLMHEAQRVAGLLPAQTLDLVIFTTGIFAAPQRQETTEGIERDLAVSYLNRLVMLRAIAPTLGTQRARPAMKPRVFIMGYPGSGQTGAPDDLNAEAPYKAMAAHMNTVAGNEMLVLDAALRYPQATFFGLNPGLIKTGIRDNFFGKGSVKSRIAETLIGWLTPTADTYAQRITPLLMSPDLEGHSGAMFNSKGQAILPSPGLGEAHIRKFMAASEALANRTGIHPIGQEDRP” belongs “failed”. Regarding “MKREIQVSVFLTFITLAYYLLNSLALEFLGLGFISIPLTILLPASILFERERPNPISRVTYIFSMLWLVFLIYLLTGWALVQFIWFFLDLPCLKILAVSLAALSVSYGVFRARKIEVKRVEIPFPVEESLRFVQLSDIHLGTVRSAGFLKEVSEAVRRVEAAAVLITGDLLDGSRPVDSSIISSLETGAPIFFVSGNHDTYSGDFRSTVSDAGIMCIDQSVIEFEGIQIIGVGYSMERHSLPAILDLLEFDEDRPVLLLHHLPVDWEDARERGVDLQLSGHTHGGQFYPFNIIVGLMFPFLRGLYSDSGGFLYVSEGTGTWGPPVRLGSSCEITVIDLVPFKEI”, the protein production result is reported as “failed”. The entry for “MKRERSDFEESLKNIDIAKCLMILAQTSMVKQIGLNQHTESHTSNQFECKTCNKRFSSFQALGGHRASHKKPKLTVEQKDVKHLSNDYKGNHFHKCSICSQSFGTGQALGGHMRRHRSSMTVEPSFISPMIPSMPVLKRCGSSKRILSLDLNLTPLENDLEYIFGKTFVPKIDMKFVL” is “failed”; for “MKRFIIKSDRIGFSIWEETDLKEALELWGNSNVTKYITADGKMSIEDVKTRLKVEIEFYEKYKVQYWPIFLNETSENLGVCGLHPYNIKDSVFELGVHLREKYWGIGVAEKACNLVMRYAFENLQAKAIFVGHNPNNKASKKLIKKLGFTYTHDEFYEPTGLYHPSYLITCNEFIEVKNKLKGGKIIGKNK” it is “not failed”. On to “MKRFVLFLLFMCVCVQAYAEQDYFFRDFKSRDLPQKLHLDKKLSQTIQPCMQLNASKHYTSTGVREPDKCTKSFKKSALMSYDLALGYLVSKNKQYGLKAIEILNAWAKELQSVDTYQSEDNINFYMPYMNMAYWFVKKAFPSPEYEDFIKRMRQYSQSALNTNHGAWGILFDVSSALALDDNALLHNSANRWQEWVFKAIDENGVIASAITRSDTSDYHGGPTKGIKGIAYTNFALLALTISGELLFENGYDLWGSGAGKRLSVAYNKVATWILNPETFPYFQPNLIGVHNNAYFIILAKHYSSPSANELLKQGDLHEDGFRLKLRSP”, for which the protein production entry is “failed”. The entry for “MKRGNEENNHKTSSSSSTQRLSRRKISAGEKSGNVNIPLDLTVEILKKLPAKSLLRFQCVSKQWLSIISSRRDFIDSIVTRSLTQPPPRDIKLIFHHQVLYPGPHFFIFSSTYPQNTDKESLTTRASSYHYVRGLICCWSHCPTTVDIYNPTTRQYYTVPDTNRYQYIETCFFGYDPVENQYKVMVLPKYYMEESPCQVFTVGDPIEKPWRDIQGIGVHFLLKDAVCINGVIYYQATNEYGSTYFLVSFDVRSEKFNHVKAPKILTDHPCTLINYQGKLGLIMCCKKGLEIWVMEDAEKKQD” is “failed”.

As to “MKRIFKGHSPWGFLSFRHAENQEPPRYLTGYTPVKRIHKAASMGDIPQVQKLLEFGNIDVNITDRKKRTALHYACAHGQSEMVSLLLWYDCNIEARDREESTALIKATQRQHEICVKILLENGADPNAVDAYHITALHYAVYNNDTAIAAKLLSFNANTEIKTKNGYTPLILAVLENKQEMVELLLRAAANINALDNCKRSALIHAVRIQSKNMISLLLQQGADPSLVDIYGATAQSYAVFETFQVLSQSPGPSCPELTTKEDKQSFDTKDGCIPHSHHIKEDNQEMEENTDDKLGSPAALKHKEKELENCEECNSEADTYPESYSKTSSAQRRSNSEPTEVDDEPSFSTKPPVAQSPMFTESSLWVGYPADWPEPVKFSRQPAVYNPTEWREDMESRSVPREESKQQVAIFPEGKEADVQTQELLSRVFKESGDNDPNLPAIENTKDELVSLLAPLEENKPQMTEFPLIEAAKFQTDVQLDRCPCFLLSLRNSLSGTLD”, the protein production result is “failed”.

Regarding “MKRIKLVRHGESAANAGQASRNHESIPLTHRGLEQAITVARSFTKAPELIVASPFSRAQATAQETSAIFPTVAIETWPIQEFTYLAPARCVDTTVAQRRDWVDAYWARAEPAFCDGEGAESFLDFVYRAQAFLKQLAGHSAANTVVFSHGQFLNAVAWLLERRPQSLDRHAMADWRRYEIENHIPNGCGFYLSQSSTGAEWVLGHRNY”, the protein production result is recorded as “failed”. For the sequence “MKRILVSLYEKEKYLDILRELHEKGWEIWASSGTAKFLKSNGIEANDVSTITGFENLLGGLVKTLHPEIFAGILGPEPRWDVVFVDLYPPPDIDIGGVALLRAAAKNWKKVKPAFDMETLKLAIEIDDEETRKYLAGMTFAFTSVYDSIRANQFVEGISLAFKREDLQLRYGENPHEKAFVYGKPAFEILHEGKTISFNNILDAENAWFMAKNLPRMGAVVVKHQSPCGAAIGEDKVEIVKKAIEADDESSFGGILAVNFEMDEEVAKSLKKYLEVIVAPSFTQEAIEVLSKKKVRLLKPGDYASWAGKMAFGSLVLSERKYPEGNFELVVGEPLSEKELEDLEFAYRVVEGAKSNAVLIAKDGVTVGIGSGQPSRKRAAWIATVMAGEKAKGAVAASDAFFPFPDSLEILAQAGVKAVVAPLGSIRDEEVIEKARELGITFYKAPSRVFRH”, the protein production entry is listed as “not failed”. The entry for “MKRKAVNFHPQVDMSIGDKYLLKEFIDEGSFGYVWKAVNLENRQTVALKIPKDQERGDNTLSEGKEFIGSHHPNVISIYWMGRVDGVFLIEMEYFNGHKLSDELCETGFKSPRTFEEIYNLFFQILDGVEYIHSKHICHGDIKPQNILIDGKIAKITDFGTSKLIEDLFIKTIDGGGTWAYMAPEVAGSNRRYLNSDIYSLGVLLYKFLTGRTPHETANQLINNIPYPKPREINNNIPESVERIIMKLLKRNPDERYQNISEIKRDLEEALRSEDRNIISYNERAEVKYEDTDWIERVIRYYKNNEFDKAELLLKTEYENGNKSADVLYHIAYTYFQQGRYFESMDVIKDIDITQVEDIRQEALEDNLLYLKGKLFFELKKYEEAVKVYEKLVSRNPDDLNYRYKLACAYGLNDEQEKSIEILEDINKKTPGMLYIVKKLGHAYDQIKDFKKARAYFNYAIRLDPSDTIIRNRLEEYSKYFNYLGY” is “failed”. Turning to “MKRKISMNKYVVSTILVMISTFFSRIMGFVKIKIFSYYFGANLDADIFNYVFNIPNNLRKILSEGAMTSAFLPEFTHEKNKSHEKAVSFFRTVITFNIISIGLIVLVMIIFAKPIMYFISYYRGENLIFASSVFGYLVLYILLISLSSIFVSVLNSYKIFFIPSFSPIMLSFGIILSIFLFYGRFGIYSAVIGVIFGGFLQFLIPFANCLMIGFAWKPTFYFREKVFLNFLTRWLRMIFGFSISIITQQISFALASTLEIGSVSILSNAVVYYQLPVGIFYISIATVIFPKMAEHAVLGNNIKLNALLVDGIKILLLIFIPVSFLMFIWSDYILNLFLMGGKFSIYDTQKTASVLKCFLLGLLFYSMFGFFQKYYFSIRDAKTPFYLSVLFSILDIAISVFGINYYGLNALALAQSISFMICVIVFYFIILKRGVKIDLIEILFVLLKSIITLFPLYAIYFFFEKFQWDVGFSFKNLYFLMAAGIVSIFVLFICYSVLGINKLFRYIRRDAL”, the protein production result is recorded as “failed”. To “MKRKLTTKFIESQKPNPSKRLDFRDELMPGLVLRISTSGTKTFCLHKRISGKMRRLTIGRFGVVSLAEARERVRKVLYEIETGRFEDRTGVEVETKPTLGDVIPDYIEKHAKVHNRDWKRKEALLAKFAALHVKRIDEIKRADVVKACDLIHKSAPVSANRALAHLKHLMGWCVERGMIDASPIAGMKPLSKERSRERVLTDDELGALWTACDAEGYPFGDCMKLLILSGQRRAEVAEMRWTELDLEKRLWTLPSQRAKNGRQHTVPITDAMIDVLRRVPRFLGSDYVFTTTGKSPVSGFGRLKDRLDKALPEGTEPWIIHDLRRTMSTNMAMLGVPQPVTEALLNHKTGVVSGVAAIYNVYSYTDEKCEALEQWNRHLTKMTQGHSDRLAGKMSAQFSA” belongs “failed”.

The record behind these values is a protein production outcome set (Wang et al. 2014).
